# Results as given in PMC9798254.
# B1: ecGmhB (Escherichia coli K-12) (protein)
# chain: MAKSVPAIFLDRDGTINVDHGYVHEIDNFEFIDGVIDAMRELKKMGFALVVVTNQSGIARGKFTEAQFETLTEWMDWSLADRDVDLDGIYYCPHHPQGSVEEFRQVCDCRKPHPGMLLSARDYLHIDMAASYMVGDKLEDMQAAVAANVGTKVLVRTGKPITPEAENAADWVLNSLADLPQAIKKQQKPAQ
# What was measured:
# [1] = substrate: O=P(O)(O)OC[C@@H](O)[C@H]1O[C@@H](OP(=O)(O)O)[C@@H](O)[C@@H](O)[C@@H]1O; test: purified protein; conditions: 100 mM Tris/HCl pH 7.8, 5 mM MgCl2, 25°C
# [2] = substrate: O=P(O)(O)OC[C@@H](O)[C@H]1O[C@H](OP(=O)(O)O)[C@@H](O)[C@@H](O)[C@@H]1O; test: purified protein; conditions: 100 mM Tris/HCl pH 7.8, 5 mM MgCl2, 25°C
protein,measurement,setting,value
B1,Km,[1],2.3 ± 0.3 µM
same,kcat,[1],35.7 ± 1.1 s⁻¹
same,kcat/Km,[1],1.55e+07 M⁻¹ s⁻¹
same,Km,[2],117 ± 15 µM
same,kcat,[2],3.5 ± 0.2 s⁻¹
same,kcat/Km,[2],29900 M⁻¹ s⁻¹
